In paper PMC3605159, “Twist1 Controls a Cell-Specification Switch Governing Cell Fate Decisions within the Cardiac Neural Crest” (PLoS Genetics, 2013):

T1: Sox10 (rat, UniProt O55170 1-466)
T1 sequence (looked up): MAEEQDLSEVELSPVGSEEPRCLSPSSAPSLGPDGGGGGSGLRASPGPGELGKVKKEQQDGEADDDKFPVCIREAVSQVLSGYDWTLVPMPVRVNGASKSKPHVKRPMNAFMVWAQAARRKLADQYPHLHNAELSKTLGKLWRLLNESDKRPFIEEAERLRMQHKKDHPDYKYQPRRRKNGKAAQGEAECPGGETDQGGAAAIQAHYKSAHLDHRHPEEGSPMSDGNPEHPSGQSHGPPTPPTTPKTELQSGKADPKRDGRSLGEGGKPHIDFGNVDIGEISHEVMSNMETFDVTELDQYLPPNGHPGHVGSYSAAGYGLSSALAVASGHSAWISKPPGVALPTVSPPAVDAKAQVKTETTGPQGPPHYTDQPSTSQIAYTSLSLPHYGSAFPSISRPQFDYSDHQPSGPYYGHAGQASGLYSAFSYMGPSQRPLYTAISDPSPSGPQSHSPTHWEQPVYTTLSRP


Molecular target: T1, Sox10
Experiment: cell-based or functional assay

luciferase transactivation of the Phox2b promoter by Sox10 in HeLa cells with Twist1 co-expressed (Sox10 alone 48.9+/−2.2-fold) [fold] | luciferase transactivation of the Phox2b promoter by Sox10 in HeLa cells with Twist1 S192P co-expressed (Sox10 alone 48.9+/−2.2-fold) [fold] | Binder
26.3 |  | Twist1 (natural protein, UniProt P26687 1-206, looked up) MMQDVSSSPVSPADDSLSNSEEEPDRQQPASGKRGARKRRSSRRSAGGSAGPGGATGGGIGGGDEPGSPAQGKRGKKSAGGGGGGGAGGGGGGGGGSSSGGGSPQSYEELQTQRVMANVRERQRTQSLNEAFAALRKIIPTLPSDKLSKIQTLKLAARYIDFLYQVLQSDELDSKMASCSYVAHERLSYAFSVWRMEGAWSMSASH
 | 49.3 | Twist1 S192P (natural protein, UniProt P26687 1-206, looked up) MMQDVSSSPVSPADDSLSNSEEEPDRQQPASGKRGARKRRSSRRSAGGSAGPGGATGGGIGGGDEPGSPAQGKRGKKSAGGGGGGGAGGGGGGGGGSSSGGGSPQSYEELQTQRVMANVRERQRTQSLNEAFAALRKIIPTLPSDKLSKIQTLKLAARYIDFLYQVLQSDELDSKMASCSYVAHERLSYAFPVWRMEGAWSMSASH
